The data set deals with the molecule itself. In words: crystal structure.

B1: MSMEG_3380 (FDR-B family F420H2-dependent reductase), recombinant, for crystallography (enzyme)
chain: MVAVPEGYESLLERPLYGHLATVRPDGTPQVNAMWFAWDGEVLRFTHTTKRQKYRNIKANPAVAMSVIDPDNPYRYLEVRGLVEDIVPDPTGAFYLKLNDRYDGPLTEPPADKADRVIIVVRPTAFSKQ
modifications: seleno-methionine labelled
Turning to B1, the binding result was “binds”.
